Measured values reported in US20030175270.

Key:
[1] = target: JAK2 immunoprecipitated from BMMC lysates (tyrosine-phosphorylated) (UniProt Q62120)
[2] = target: Tyk2 immunoprecipitated from macrophage lysates (UniProt Q9R117)
[3] = target: STAT5 immunoprecipitated from BMMC lysates (UniProt Q9JIA0)
[4] = target: JAK1 immunoprecipitated from BMMC lysates (UniProt P52332)
[5] = target: STAT3 immunoprecipitated from BMMC lysates (UniProt P42227)
[6] = target: Lyn immunoprecipitated from BMMC lysates (UniProt P25911)
Chain of Lyn immunoprecipitated from BMMC lysates (P25911 2-512): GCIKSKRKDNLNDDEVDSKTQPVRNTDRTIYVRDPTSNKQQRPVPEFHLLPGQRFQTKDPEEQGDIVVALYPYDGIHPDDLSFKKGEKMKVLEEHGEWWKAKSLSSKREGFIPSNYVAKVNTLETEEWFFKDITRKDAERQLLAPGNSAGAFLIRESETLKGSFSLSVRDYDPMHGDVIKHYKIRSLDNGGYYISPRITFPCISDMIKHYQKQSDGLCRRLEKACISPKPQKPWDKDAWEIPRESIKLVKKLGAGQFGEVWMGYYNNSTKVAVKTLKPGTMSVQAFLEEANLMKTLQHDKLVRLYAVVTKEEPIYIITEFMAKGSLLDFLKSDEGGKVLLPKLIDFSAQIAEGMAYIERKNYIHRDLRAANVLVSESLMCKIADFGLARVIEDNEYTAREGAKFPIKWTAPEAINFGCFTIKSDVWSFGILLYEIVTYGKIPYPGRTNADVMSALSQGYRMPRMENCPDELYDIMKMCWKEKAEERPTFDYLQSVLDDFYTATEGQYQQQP

Chain of JAK2 immunoprecipitated from BMMC lysates (tyrosine-phosphorylated) (Q62120 whole entry): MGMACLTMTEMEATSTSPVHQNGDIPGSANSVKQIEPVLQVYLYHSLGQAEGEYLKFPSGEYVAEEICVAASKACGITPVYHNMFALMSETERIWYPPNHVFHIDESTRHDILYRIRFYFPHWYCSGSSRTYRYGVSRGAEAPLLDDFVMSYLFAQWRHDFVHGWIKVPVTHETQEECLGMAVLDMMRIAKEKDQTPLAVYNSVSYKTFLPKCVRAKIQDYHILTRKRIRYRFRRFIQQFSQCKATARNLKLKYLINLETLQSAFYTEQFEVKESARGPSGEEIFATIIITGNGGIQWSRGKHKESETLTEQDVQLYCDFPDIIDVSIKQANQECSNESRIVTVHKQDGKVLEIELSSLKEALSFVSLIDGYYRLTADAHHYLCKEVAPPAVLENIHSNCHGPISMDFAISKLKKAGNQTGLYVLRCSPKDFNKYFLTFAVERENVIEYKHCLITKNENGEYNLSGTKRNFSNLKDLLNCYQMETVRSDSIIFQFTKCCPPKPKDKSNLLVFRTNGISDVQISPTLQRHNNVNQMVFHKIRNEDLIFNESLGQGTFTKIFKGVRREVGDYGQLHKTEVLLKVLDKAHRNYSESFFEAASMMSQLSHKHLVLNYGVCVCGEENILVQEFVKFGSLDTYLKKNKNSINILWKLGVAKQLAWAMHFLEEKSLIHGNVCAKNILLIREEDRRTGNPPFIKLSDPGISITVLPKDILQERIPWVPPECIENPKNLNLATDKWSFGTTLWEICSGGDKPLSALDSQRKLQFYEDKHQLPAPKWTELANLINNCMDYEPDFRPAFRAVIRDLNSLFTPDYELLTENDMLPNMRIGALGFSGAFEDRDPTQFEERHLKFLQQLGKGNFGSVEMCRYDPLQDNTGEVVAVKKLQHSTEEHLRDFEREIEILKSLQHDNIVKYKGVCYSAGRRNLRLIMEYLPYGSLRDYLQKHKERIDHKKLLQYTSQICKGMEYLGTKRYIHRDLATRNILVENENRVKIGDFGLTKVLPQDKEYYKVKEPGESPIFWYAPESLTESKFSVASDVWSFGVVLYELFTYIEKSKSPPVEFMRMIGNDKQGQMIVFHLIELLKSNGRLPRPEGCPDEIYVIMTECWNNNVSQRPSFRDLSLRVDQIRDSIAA
Chain of STAT3 immunoprecipitated from BMMC lysates (P42227 2-770): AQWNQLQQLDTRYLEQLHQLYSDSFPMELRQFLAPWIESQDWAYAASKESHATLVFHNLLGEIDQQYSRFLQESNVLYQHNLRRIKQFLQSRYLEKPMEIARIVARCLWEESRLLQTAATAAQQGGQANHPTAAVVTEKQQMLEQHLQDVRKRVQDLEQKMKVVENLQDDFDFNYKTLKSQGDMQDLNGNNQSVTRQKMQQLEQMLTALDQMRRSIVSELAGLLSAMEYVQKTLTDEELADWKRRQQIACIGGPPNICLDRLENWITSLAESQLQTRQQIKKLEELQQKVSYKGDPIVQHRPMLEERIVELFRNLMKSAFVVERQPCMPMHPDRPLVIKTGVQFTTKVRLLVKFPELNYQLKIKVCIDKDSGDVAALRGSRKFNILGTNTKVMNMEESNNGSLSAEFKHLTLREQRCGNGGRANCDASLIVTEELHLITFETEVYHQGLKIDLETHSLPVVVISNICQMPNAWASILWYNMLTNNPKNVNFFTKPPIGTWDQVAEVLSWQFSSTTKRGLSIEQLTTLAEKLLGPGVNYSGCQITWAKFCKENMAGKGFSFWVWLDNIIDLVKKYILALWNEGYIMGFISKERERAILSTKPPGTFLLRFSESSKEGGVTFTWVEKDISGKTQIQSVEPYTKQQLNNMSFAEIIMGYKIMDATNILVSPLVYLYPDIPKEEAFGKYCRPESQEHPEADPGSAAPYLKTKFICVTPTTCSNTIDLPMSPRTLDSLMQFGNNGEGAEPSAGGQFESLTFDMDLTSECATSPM
Chain of JAK1 immunoprecipitated from BMMC lysates (P52332 whole entry): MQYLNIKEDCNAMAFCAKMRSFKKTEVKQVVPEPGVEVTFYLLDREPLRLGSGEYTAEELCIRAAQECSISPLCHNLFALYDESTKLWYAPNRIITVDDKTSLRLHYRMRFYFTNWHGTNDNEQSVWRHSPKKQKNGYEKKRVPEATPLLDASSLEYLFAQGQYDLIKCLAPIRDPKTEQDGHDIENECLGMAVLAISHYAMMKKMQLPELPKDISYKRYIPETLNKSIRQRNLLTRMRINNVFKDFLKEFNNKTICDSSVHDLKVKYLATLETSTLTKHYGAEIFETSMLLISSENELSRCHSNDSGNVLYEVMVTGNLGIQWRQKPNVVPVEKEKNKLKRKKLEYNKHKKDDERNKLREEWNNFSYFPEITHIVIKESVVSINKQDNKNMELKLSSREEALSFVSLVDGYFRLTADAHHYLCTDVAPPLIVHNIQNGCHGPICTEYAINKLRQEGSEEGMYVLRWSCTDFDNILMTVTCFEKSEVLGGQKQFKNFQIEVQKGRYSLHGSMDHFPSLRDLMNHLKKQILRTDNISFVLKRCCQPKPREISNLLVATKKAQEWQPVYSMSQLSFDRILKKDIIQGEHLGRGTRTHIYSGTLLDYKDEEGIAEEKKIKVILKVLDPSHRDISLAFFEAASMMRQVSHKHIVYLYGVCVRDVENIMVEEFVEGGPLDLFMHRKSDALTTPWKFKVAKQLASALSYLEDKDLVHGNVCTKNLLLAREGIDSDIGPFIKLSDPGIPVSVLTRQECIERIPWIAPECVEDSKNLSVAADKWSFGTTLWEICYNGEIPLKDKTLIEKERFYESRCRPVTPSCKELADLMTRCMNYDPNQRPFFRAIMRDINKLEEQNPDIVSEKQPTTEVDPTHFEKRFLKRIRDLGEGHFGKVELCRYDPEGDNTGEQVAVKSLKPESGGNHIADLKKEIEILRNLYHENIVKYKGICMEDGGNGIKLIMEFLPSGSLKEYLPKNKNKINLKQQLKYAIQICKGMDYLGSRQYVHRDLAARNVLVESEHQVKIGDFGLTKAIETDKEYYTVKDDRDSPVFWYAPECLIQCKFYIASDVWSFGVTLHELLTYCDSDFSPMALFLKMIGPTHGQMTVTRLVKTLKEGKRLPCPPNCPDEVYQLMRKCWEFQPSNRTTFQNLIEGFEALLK

| Substance | tyrosine dephosphorylation in vitro (phosphatase assay) [1] | dephosphorylation of critical tyrosine residues in vitro (site-specific phospho-specific antibodies) [2] | dephosphorylation of critical tyrosine residues in vitro (site-specific phospho-specific antibodies) [1] | tyrosine dephosphorylation in vitro (phosphatase assay, immunoblot) [1] | tyrosine dephosphorylation in vitro (phosphatase assay, immunoblot) [3] | dephosphorylation of critical tyrosine residues in vitro (site-specific phospho-specific antibodies) [4] | tyrosine dephosphorylation in vitro (phosphatase assay, immunoblot) [5] | tyrosine dephosphorylation in vitro (phosphatase assay, immunoblot) [6] |
| --- | --- | --- | --- | --- | --- | --- | --- | --- |
| PTPase-dead rCD45 (D1:C828S mutant) | PTPase-dead rCD45 (D1:C828S mutant) did not dephosphorylate JAK2 |  |  |  |  |  |  |  |
| recombinant CD45 (intracellular dual PTPase domains, Mr 97K, catalytic D1 and non-catalytic D2, lacking extracellular regions) |  | rCD45 does indeed dephosphorylate the critical tyrosine residues of JAK1, JAK2, and Tyk2 in vitro | rCD45 does indeed dephosphorylate the critical tyrosine residues of JAK1, JAK2, and Tyk2 in vitro | rCD45 did, however, dephosphorylate JAK2 in vitro | tyrosine dephosphorylation of STAT3 (FIGS. 3A and 3B) and STAT5 did not occur after incubation with rCD45, even at high concentrations of rCD45 | rCD45 does indeed dephosphorylate the critical tyrosine residues of JAK1, JAK2, and Tyk2 in vitro | tyrosine dephosphorylation of STAT3 (FIGS. 3A and 3B) and STAT5 did not occur after incubation with rCD45, even at high concentrations of rCD45 | rCD45 dephosphorylated Lyn in a dose-dependent manner |
